Test results reported in patent US12454527B2, “Conjugate monomethyl auristatin E to obtain a composition for treatment of prostate cancer” (priority 2019, dated 2025).
Values joined by “and” are separate entries in the source; they are usually repeats but may differ in a detail not shown here. Equal entries are not always repeated. Where two headings read alike, the source gives them in different places. Starred links: 1 amine or outer side, 2 acyl side, 3 side chain; linkers in the order of their positions; H or OH if unused. Non-standard residues stand in square brackets, D forms with d. Residues, ends and D or L forms follow the SMILES beside them. ξ: configuration not given here. *: point of attachment. GluureaLys(ε-3-ClBenzyl) = O=C(O)CC[C@H](NC(=O)N[C@@H](CCCCN(Cc1cccc(Cl)c1)*)C(=O)O)C(=O)O; Dolaproine = CO[C@@H]([C@@H]1CCCN1)[C@@H](C)C(=O)O; Dil = CC[C@H](C)[C@H](NC)[C@@H](CC(=O)O)OC; X1 = O=C(CCCc1cn(CCCN[*:1])nn1)[*:2]; PABC = O=C(OCc1ccc(N[*:1])cc1)[*:2]; X2 = C[C@@H](N*)[C@@H](O)c1ccccc1; Cit = NC(=O)NCCC[C@H](N)C(=O)O; Suc = O=C(CCC(=O)[*:2])[*:1]; NMeV = CN[C@H](C(=O)O)C(C)C; ξV = CC(C)C(N)C(=O)O; Ahx = NCCCCCC(=O)O

Test: Pharmacokinetics in plasma of rabbits after a single injection; as to T1/2: dose 0.81 mg/kg; as to Vd: dose 0.81 mg/kg
Assay type: in vivo
Excerpt: The pharmacokinetics study for the Conjugate (I) product in plasma of rabbits and rats after a single injection.
The leporids and rodents are the standard targets for preclinical studies of potential drug products as well as determining the pharmacokinetic parameters. The rabbits and rats are recommended as test systems to study pharmacokinetic properties of pharmaceutical products by the regulatory documents (FIG. 7, FIG. 8).
[…] The pharmacokinetic data, determined from this number of test animals, are sufficient to obtain the primary quantitative characteristics of test product distribution and elimination and the calculation of descriptive statistics parameters.
• 1. Conjugate (1) • 2. Solubilizer Pluronic F127—in the amount, five-fold greater than the conjugate amount by weight. • 3, Diluent—Haemodes infusion solution. • Dimethyl sulfoxide—in the amount of 5% of the prepared volume. • Rabbit experiment (see Tables 5, 6), • Rat experiment (see Tables 7, 8).

[1] = male, Soviet Chinchilla, rabbit, plasma, rabbits N=6, read-out: Concentration in blood plasma, Geometr. mean
[2] = male, Soviet Chinchilla, rabbit, plasma, rabbits N=6, read-out: Concentration in blood plasma, Mean value
[3] = male, Soviet Chinchilla, rabbit, plasma, rabbits N=6, read-out: Concentration in blood plasma, Median
[4] = male, Soviet Chinchilla, rabbit, plasma, rabbits, read-out: Concentration in blood plasma (individual animals)

Structure (SMILES): CC[C@H](C)[C@@H]([C@@H](CC(=O)N1CCC[C@H]1[C@H](OC)[C@@H](C)C(=O)N[C@H](C)[C@@H](O)c1ccccc1)OC)N(C)C(=O)[C@@H](NC(=O)[C@H](C(C)C)N(C)C(=O)OCc1ccc(NC(=O)[C@H](CCCNC(N)=O)NC(=O)C(NC(=O)CCCc2cn(CCCNC(=O)[C@H](Cc3ccc(O)cc3)NC(=O)[C@H](Cc3ccccc3)NC(=O)CCC(=O)NCCCCCC(=O)N(CCCC[C@H](NC(=O)N[C@@H](CCC(=O)O)C(=O)O)C(=O)O)Cc3cccc(Cl)c3)nn2)C(C)C)cc1)C(C)C (some centres unmarked) [Conjugate (I)] ({GluureaLys(ε-3-ClBenzyl)-Ahx-Suc}-FY[X1][ξV][Cit][PABC][NMeV]V[Dil][Dolaproine]-X2)
- level at 3 h (male, Soviet Chinchilla, rabbit, plasma, rabbits N=6, 3.00 hour, read-out: Concentration in blood plasma, Median): 3650 ng/mL
- level at 4 h [1]: 2430 ng/mL
- level at 4 h [2]: 2520 ng/mL
- level at 4 h [3]: 2540 ng/mL
- level at 6 h [1]: 1510 ng/mL
- level at 6 h [2]: 1540 ng/mL
- level at 6 h [3]: 1620 ng/mL
- level at 8 h (male, Soviet Chinchilla, rabbit, plasma, rabbits N=6, 8.00 hour, read-out: Concentration in blood plasma, Geometr. mean): 1180 ng/mL
- level at 8 h (male, Soviet Chinchilla, rabbit, plasma, rabbits N=6, 8.00 hour, read-out: Concentration in blood plasma, Mean value): 1210 ng/mL
- level at 10 h [1]: 857 ng/mL
- level at 10 h [2]: 878 ng/mL
- level at 10 h [3]: 892 ng/mL
- level at 12 h [1]: 631 ng/mL
- level at 12 h [2]: 657 ng/mL
- level at 12 h [3]: 558 ng/mL
- C0 (male, Soviet Chinchilla, rabbit, plasma, rabbits N=6, read-out: C0, Geometr. mean): 10900 ng/mL
- C0 (male, Soviet Chinchilla, rabbit, plasma, rabbits N=6, read-out: C0, Mean value): 11100 ng/mL
- clearance (male, Soviet Chinchilla, rabbit, plasma, rabbits N=6, read-out: CI, Geometr. mean (converted)): 0.389 mL/min/kg
- clearance (male, Soviet Chinchilla, rabbit, plasma, rabbits N=6, read-out: CI, Mean value (converted)): 0.394 mL/min/kg
- clearance (male, Soviet Chinchilla, rabbit, plasma, rabbits N=6, read-out: CI, Median (converted)): 0.374 mL/min/kg
- level at 0.08 h (male, Soviet Chinchilla, rabbit, plasma, rabbits, 0.08 hour, read-out: Concentration in blood plasma (individual animals)): 9580 ng/mL
- level at 0.25 h (male, Soviet Chinchilla, rabbit, plasma, rabbits, 0.25 hour, read-out: Concentration in blood plasma (individual animals)): 10700 ng/mL
- level at 0.5 h (male, Soviet Chinchilla, rabbit, plasma, rabbits, 0.50 hour, read-out: Concentration in blood plasma (individual animals)): 7250 ng/mL
- level at 1 h (male, Soviet Chinchilla, rabbit, plasma, rabbits, 1.00 hour, read-out: Concentration in blood plasma (individual animals)): 5100 ng/mL
- level at 1.5 h (male, Soviet Chinchilla, rabbit, plasma, rabbits, 1.50 hour, read-out: Concentration in blood plasma (individual animals)): 4850 ng/mL
- level at 2 h (male, Soviet Chinchilla, rabbit, plasma, rabbits, 2.00 hour, read-out: Concentration in blood plasma (individual animals)): 3840 ng/mL
- level at 6 h [4]: 1310 ng/mL
- level at 8 h (male, Soviet Chinchilla, rabbit, plasma, rabbits, 8.00 hour, read-out: Concentration in blood plasma (individual animals)): 1360 ng/mL
- level at 10 h [4]: 859 ng/mL
- AUCt-∞/AUC0-∞, Geometr. mean (rabbits N=6): 11.364%
- AUCt-∞/AUC0-∞, Mean value (rabbits N=6): 12.690%
- AUCt-∞/AUC0-∞, Median (rabbits N=6): 13.29%
- C0, Median (rabbits N=6): 9880 ng/mL
- Kel, Geometr. mean (rabbits N=6): 0.160 h⁻¹
- Kel, Mean value (rabbits N=6): 0.170 h⁻¹
- Kel, Median (rabbits N=6): 0.153 h⁻¹
- Concentration in blood plasma, Geometr. mean (rabbits N=6, 1.50 hour): 5046 ng/mL
- Concentration in blood plasma, Median (rabbits N=6, 8.00 hour): 1195 ng/mL
- Concentration in blood plasma (individual animals) (rabbits, 0.08 hour): 9617 ng/mL
- Concentration in blood plasma (individual animals) (rabbits, 2.00 hour): 3781 ng/mL
- Concentration in blood plasma (individual animals) (rabbits, 3.00 hour): 3693 ng/mL
- AUC0-t (rabbits, individual animals): 39504 ng·h/mL and 21886 ng·h/mL and 33617 ng·h/mL and 28972 ng·h/mL and 28872 ng·h/mL
- AUC0-∞ (rabbits, individual animals): 42004 ng·h/mL and 26025 ng·h/mL and 39814 ng·h/mL and 36928 ng·h/mL and 30768 ng·h/mL
- AUCt-∞/AUC0-∞ (rabbits, individual animals): 11.01% and 5.95% and 15.90% and 15.57% and 21.54% and 6.16%
- C0 (rabbits, individual animals): 17049 ng/mL and 9815 ng/mL and 9947 ng/mL and 9624 ng/mL and 9582 ng/mL
- CI (rabbits, individual animals): 0.3827 mL/min/kg and 0.3213 mL/min/kg and 0.5187 mL/min/kg and 0.339 mL/min/kg and 0.3655 mL/min/kg and 0.4388 mL/min/kg
- Kel (rabbits, individual animals): 0.137 h⁻¹ and 0.234 h⁻¹ and 0.123 h⁻¹ and 0.168 h⁻¹ and 0.099 h⁻¹ and 0.256 h⁻¹
- MRT0-t (rabbits, individual animals): 3.14 h and 3.29 h and 3.88 h and 3.74 h and 3.46 h
- T1/2 (rabbits, individual animals): 5.06 h and 2.97 h and 5.63 h and 4.12 h and 7.01 h and 2.70 h
- Vd (rabbits, individual animals): 0.16766 L/kg and 0.08255 L/kg and 0.2526 L/kg and 0.12101 L/kg and 0.22174 L/kg and 0.1027 L/kg
